pIC50, pKd: −log10 of the molar value. Blank lines part the entries; values can stand above or below the substance they belong to.
How the values were obtained:
[1] = target: full length human PDGFR-beta on HEK293 cells (human) (UniProt P09619); assay: cell-based or functional assay
[2] = target: Macaca fascicularis PDGFRb.mmh (Macaca fascicularis); assay: SPR, mAb captured, 25 C
hPDGFRb.mmh (human) [3] = target: hPDGFRb.mmh (human) (UniProt P09619); assay: SPR, mAb captured, 25 C
human PDGFRb.hFc (human) [4] = assay: SPR, mAb captured, 25 C
[5] = target: Macaca fascicularis PDGFRb.mmh (Macaca fascicularis); assay: SPR, mAb captured, 37 C
hPDGFRb.mmh (human) [6] = target: hPDGFRb.mmh (human) (UniProt P09619); assay: SPR, mAb captured, 37 C
human PDGFRb.hFc (human) [7] = assay: SPR, mAb captured, 37 C
hPDGFRb.mmh (human) [8] = target: hPDGFRb.mmh (human) (UniProt P09619); assay: blocking ELISA, biot-hPDGFRb.mmh to coated PDGF-BB
hPDGFRb.mmh (human) [9] = target: hPDGFRb.mmh (human) (UniProt P09619); assay: blocking ELISA, biot-hPDGFRb.mmh to coated PDGF-BB; average of three experiments
hPDGFRb.mmh (human) [10] = target: hPDGFRb.mmh (human) (UniProt P09619); assay: Octet BLI cross-competition, 25 C; hPDGFRb.mmh on anti-Penta-His tips pre-saturated with mAb-1 H4H3099S (row 6)
hPDGFRb.mmh (human) [11] = target: hPDGFRb.mmh (human) (UniProt P09619); assay: Octet BLI cross-competition, 25 C; hPDGFRb.mmh on anti-Penta-His tips pre-saturated with mAb-1 H4H3107S (row 7)
hPDGFRb.mmh (human) [12] = target: hPDGFRb.mmh (human) (UniProt P09619); assay: Octet BLI cross-competition, 25 C; hPDGFRb.mmh on anti-Penta-His tips pre-saturated with mAb-1 H4H3305N (row 8)
hPDGFRb.mmh (human) [13] = target: hPDGFRb.mmh (human) (UniProt P09619); assay: Octet BLI cross-competition, 25 C; hPDGFRb.mmh on anti-Penta-His tips pre-saturated with mAb-1 H4H3310N (row 9)
hPDGFRb.mmh (human) [14] = target: hPDGFRb.mmh (human) (UniProt P09619); assay: Octet BLI cross-competition, 25 C; hPDGFRb.mmh on anti-Penta-His tips pre-saturated with mAb-1 Control I (row 1); self-competition

Control I (antibody), sequence (VH): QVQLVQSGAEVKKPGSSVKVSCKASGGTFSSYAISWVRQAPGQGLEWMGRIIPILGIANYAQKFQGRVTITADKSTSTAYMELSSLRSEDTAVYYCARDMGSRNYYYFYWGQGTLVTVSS
Control I (antibody), sequence (VL): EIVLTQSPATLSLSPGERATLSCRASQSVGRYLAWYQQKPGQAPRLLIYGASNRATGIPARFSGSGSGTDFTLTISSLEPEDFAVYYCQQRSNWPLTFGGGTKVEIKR
hPDGFRb.mmh (human), sequence (P09619 other isoform, or with tags, fused parts or gaps): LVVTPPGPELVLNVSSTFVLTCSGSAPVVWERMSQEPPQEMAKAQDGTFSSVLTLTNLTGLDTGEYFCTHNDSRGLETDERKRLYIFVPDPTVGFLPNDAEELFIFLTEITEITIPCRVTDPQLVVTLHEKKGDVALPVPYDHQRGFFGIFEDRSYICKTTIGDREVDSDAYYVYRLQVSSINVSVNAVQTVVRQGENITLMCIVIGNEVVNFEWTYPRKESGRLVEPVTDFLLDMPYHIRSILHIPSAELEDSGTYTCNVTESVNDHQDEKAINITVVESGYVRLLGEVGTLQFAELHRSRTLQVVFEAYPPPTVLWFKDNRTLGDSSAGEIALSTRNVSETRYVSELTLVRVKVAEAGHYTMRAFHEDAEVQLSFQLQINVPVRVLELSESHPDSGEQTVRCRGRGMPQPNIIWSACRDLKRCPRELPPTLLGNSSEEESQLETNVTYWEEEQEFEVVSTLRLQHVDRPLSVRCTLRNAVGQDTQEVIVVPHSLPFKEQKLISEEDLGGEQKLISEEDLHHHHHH
full length human PDGFR-beta on HEK293 cells (human), sequence (P09619 33-1106 limits assumed): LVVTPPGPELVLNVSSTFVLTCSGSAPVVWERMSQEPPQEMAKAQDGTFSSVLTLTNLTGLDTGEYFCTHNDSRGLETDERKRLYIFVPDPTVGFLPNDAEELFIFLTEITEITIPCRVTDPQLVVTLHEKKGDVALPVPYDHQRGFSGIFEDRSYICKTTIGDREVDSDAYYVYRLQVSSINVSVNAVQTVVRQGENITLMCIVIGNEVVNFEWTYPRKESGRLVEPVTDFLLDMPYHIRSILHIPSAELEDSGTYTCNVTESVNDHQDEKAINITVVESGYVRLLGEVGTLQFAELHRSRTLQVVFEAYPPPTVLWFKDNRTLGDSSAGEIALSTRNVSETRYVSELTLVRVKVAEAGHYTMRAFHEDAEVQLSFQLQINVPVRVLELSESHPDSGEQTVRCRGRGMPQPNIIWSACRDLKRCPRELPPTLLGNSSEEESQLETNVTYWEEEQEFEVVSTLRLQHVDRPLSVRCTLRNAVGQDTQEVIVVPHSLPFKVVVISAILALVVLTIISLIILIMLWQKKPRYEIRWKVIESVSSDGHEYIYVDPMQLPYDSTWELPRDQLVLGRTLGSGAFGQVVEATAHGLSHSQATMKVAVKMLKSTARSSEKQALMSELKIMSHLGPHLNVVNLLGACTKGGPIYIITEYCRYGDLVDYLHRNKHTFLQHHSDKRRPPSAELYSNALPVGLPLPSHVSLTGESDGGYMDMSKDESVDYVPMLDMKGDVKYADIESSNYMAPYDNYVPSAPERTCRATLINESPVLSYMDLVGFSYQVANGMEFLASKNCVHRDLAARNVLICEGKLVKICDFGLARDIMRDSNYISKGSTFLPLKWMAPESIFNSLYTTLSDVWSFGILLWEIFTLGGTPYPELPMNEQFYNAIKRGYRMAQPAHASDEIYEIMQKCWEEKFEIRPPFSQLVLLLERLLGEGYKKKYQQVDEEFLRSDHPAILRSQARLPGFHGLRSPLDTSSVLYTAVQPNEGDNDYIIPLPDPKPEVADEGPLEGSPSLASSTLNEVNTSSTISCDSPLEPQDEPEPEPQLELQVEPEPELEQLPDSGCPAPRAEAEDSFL
Macaca fascicularis PDGFRb.mmh (Macaca fascicularis), sequence (chain, as listed by the source): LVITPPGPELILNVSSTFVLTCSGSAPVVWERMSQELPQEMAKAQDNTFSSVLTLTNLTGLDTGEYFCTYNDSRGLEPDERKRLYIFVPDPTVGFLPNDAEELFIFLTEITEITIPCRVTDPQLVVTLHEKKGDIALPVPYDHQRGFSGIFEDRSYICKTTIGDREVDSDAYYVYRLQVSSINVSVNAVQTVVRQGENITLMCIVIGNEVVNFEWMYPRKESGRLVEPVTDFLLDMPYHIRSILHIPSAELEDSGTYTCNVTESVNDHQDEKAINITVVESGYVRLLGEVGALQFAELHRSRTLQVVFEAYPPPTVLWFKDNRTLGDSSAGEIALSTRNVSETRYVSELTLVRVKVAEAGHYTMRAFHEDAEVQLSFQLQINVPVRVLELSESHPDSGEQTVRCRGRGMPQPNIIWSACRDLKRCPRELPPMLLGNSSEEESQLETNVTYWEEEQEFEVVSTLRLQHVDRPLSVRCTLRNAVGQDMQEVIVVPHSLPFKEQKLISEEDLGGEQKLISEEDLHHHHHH

- IC50, blocking PDGF-BB (250 pM) activation, SRE-luciferase [1]: 1.8e-10 M
- IC50, blocking PDGF-DD (400 pM) activation, SRE-luciferase [1]: 1.8e-10 M
- Percent Internalization (Relative to Control I) [1]: 100%
- pKd [2]: 8.09
- koff [2]: 0.00243 s⁻¹
- kon [2]: 302000 M⁻¹ s⁻¹
- t1/2 [2]: 5 min
- pKd (hPDGFRb.mmh (human) [3]): 7.90
- koff (hPDGFRb.mmh (human) [3]): 0.00349 s⁻¹
- kon (hPDGFRb.mmh (human) [3]): 277000 M⁻¹ s⁻¹
- t1/2 (hPDGFRb.mmh (human) [3]): 3 min
- pKd (human PDGFRb.hFc (human) [4]): 9.56
- koff (human PDGFRb.hFc (human) [4]): 0.00015 s⁻¹
- kon (human PDGFRb.hFc (human) [4]): 539000 M⁻¹ s⁻¹
- t1/2 (human PDGFRb.hFc (human) [4]): 77 min
- pKd [5]: 7.70
- koff [5]: 0.00982 s⁻¹
- kon [5]: 489000 M⁻¹ s⁻¹
- t1/2 [5]: 1.2 min
- pKd (hPDGFRb.mmh (human) [6]): 7.49
- koff (hPDGFRb.mmh (human) [6]): 0.0146 s⁻¹
- kon (hPDGFRb.mmh (human) [6]): 450000 M⁻¹ s⁻¹
- t1/2 (hPDGFRb.mmh (human) [6]): 0.8 min
- pKd (human PDGFRb.hFc (human) [7]): 9.57
- koff (human PDGFRb.hFc (human) [7]): 0.000217 s⁻¹
- kon (human PDGFRb.hFc (human) [7]): 804000 M⁻¹ s⁻¹
- t1/2 (human PDGFRb.hFc (human) [7]): 53 min
- % Maximum Blocking (hPDGFRb.mmh (human) [8]): 92%
- pIC50 (hPDGFRb.mmh (human) [9]): 9.47
- Response of mAb-2 Binding to hPDGFRβ.mmh Pre-Complexed with mAb-1 (nm) (hPDGFRb.mmh (human) [10]): 0.34 nm
- Response of mAb-2 Binding to hPDGFRβ.mmh Pre-Complexed with mAb-1 (nm) (hPDGFRb.mmh (human) [11]): 0.32 nm
- Response of mAb-2 Binding to hPDGFRβ.mmh Pre-Complexed with mAb-1 (nm) (hPDGFRb.mmh (human) [12]): 0.34 nm
- Response of mAb-2 Binding to hPDGFRβ.mmh Pre-Complexed with mAb-1 (nm) (hPDGFRb.mmh (human) [13]): 0.33 nm
- Response of mAb-2 Binding to hPDGFRβ.mmh Pre-Complexed with mAb-1 (nm) (hPDGFRb.mmh (human) [14]): 0.05 nm
Substance: Control I (antibody)

- Percent Internalization (Relative to Control I) [1]: 4%
Substance: Isotype Ctrl (antibody)

— patent publication US20170210813A1
